We go through one molecule from article doi:10.1101/2020.06.01.127969.

The target in this assay is RNA polymerase II with SNAP-tagged Rpb1 labelled with SNAP-Surface 549 (Rpb1^SNAP549) (S. cerevisiae) (UniProt P04050). The assay is described as follows: CoSMoS.
UniProt P04050, sequence (P04050 whole entry, looked up): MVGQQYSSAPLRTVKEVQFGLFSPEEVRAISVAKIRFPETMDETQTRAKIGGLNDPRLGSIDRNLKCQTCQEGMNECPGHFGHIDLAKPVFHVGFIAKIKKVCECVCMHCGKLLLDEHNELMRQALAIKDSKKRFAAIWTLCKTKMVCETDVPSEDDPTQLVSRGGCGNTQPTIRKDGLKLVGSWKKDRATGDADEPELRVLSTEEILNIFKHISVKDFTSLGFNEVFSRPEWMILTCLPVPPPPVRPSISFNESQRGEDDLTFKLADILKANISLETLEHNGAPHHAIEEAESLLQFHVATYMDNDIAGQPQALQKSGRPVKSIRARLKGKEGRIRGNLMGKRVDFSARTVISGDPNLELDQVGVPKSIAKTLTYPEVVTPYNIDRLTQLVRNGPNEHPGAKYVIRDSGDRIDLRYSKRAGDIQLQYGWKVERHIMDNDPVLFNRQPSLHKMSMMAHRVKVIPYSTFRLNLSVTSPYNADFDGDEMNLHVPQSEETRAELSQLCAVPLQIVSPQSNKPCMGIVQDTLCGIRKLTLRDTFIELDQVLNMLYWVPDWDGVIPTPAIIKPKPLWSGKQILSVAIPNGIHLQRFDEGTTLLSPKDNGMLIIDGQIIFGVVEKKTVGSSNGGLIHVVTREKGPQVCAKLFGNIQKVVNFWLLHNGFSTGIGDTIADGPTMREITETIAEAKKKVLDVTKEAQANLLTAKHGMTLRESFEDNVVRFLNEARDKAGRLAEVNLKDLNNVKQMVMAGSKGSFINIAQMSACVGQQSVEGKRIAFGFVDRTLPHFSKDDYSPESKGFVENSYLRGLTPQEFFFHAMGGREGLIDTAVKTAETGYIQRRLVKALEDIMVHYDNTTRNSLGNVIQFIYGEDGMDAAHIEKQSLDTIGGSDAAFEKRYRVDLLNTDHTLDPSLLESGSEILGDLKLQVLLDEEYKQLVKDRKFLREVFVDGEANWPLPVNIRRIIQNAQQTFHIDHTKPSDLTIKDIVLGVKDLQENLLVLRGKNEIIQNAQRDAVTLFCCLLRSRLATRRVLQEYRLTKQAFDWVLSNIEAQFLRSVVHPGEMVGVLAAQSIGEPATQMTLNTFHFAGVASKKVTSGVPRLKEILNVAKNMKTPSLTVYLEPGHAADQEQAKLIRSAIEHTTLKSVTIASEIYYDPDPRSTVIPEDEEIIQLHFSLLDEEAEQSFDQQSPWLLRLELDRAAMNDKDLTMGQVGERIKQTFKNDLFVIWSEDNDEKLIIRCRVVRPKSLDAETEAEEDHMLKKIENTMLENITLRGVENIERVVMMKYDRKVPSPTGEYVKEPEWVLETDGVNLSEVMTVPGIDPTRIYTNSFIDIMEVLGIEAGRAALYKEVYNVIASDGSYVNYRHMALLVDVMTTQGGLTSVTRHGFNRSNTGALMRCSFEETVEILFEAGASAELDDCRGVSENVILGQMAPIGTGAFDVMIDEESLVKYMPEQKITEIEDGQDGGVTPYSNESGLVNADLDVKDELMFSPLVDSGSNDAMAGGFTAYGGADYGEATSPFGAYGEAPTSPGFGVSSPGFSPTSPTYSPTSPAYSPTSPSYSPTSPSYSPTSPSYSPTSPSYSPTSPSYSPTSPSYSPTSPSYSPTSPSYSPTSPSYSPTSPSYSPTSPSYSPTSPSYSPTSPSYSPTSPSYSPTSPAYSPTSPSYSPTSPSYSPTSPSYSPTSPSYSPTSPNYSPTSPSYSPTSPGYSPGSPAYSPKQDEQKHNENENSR

B1: elongation factor Spt4/5 with DHFR-tagged Spt5 labelled with Cy5-TMP (Spt5^DHFR-Cy5) (complex)
chain 1: MSDNSDTNVSMQDHDQQFADPVVVPQSTDTKDENTSDKDTVDSGNVTTTESTERAESTSNIPPLDGEEKEAKSEPQQPEDNAETAATEQVSSSNGPATDDAQATLNTDSSEANEIVKKEEGSDERKRPREEDTKNSDGDTKDEGDNKDEDDDEDDDDDDDDEDDDDEAPTKRRRQERNRFLDIEAEVSDDEDEDEDEEDSELVREGFITHGDDEDDEASAPGARRDDRLHRQLDQDLNKTSEEDAQRLAKELRERYGRSSSKQYRAAAQDGYVPQRFLLPSVDTATIWGVRCRPGKEKELIRKLLKKKFNLDRAMGKKKLKILSIFQRDNYTGRIYIEAPKQSVIEKFCNGVPDIYISQKLLIPVQELPLLLKPNKSDDVALEEGSYVRIKRGIYKGDLAMVDQISENNLEVMLKIVPRLDYGKFDEIDPTTQQRKSRRPTFAHRAPPQLFNPTMALRLDQANLYKRDDRHFTYKNEDYIDGYLYKSFRIQHVETKNIQPTVEELARFGSKEGAVDLTSVSQSIKKAQAAKVTFQPGDRIEVLNGEQRGSKGIVTRTTKDIATIKLNGFTTPLEFPISTLRKIFEPGDHVTVINGEHQGDAGLVLMVEQGQVTFMSTQTSREVTITANNLSKSIDTTATSSEYALHDIVELSAKNVACIIQAGHDIFKVIDETGKVSTITKGSILSKINTARARVSSVDANGNEIKIGDTIVEKVGSRREGQVLYIQTQQIFVVSKKIVENAGVFVVNPSNVEAVASKDNMLSNKMDLSKMNPEIISKMGPPSSKTFQQPIQSRGGREVALGKTVRIRSAGYKGQLGIVKDVNGDKATVELHSKNKHITIDKHKLTYYNREGGEGITYDELVNRRGRVPQARMGPSYVSAPRNMATGGIAAGAAATSSGLSGGMTPGWSSFDGGKTPAVNAHGGSGGGGVSSWGGASTWGGQGNGGASAWGGAGGGASAWGGQGTGATSTWGGASAWGNKSSWGGASTWASGGESNGAMSTWGGTGDRSAYGGASTWGGNNNNKSTRDGGASAWGNQDDGNRSAWNNQGNKSNYGGNSTWGGH
chain 2: MSSERACMLCGIVQTTNEFNRDGCPNCQGIFEEAGVSTMECTSPSFEGLVGMCKPTKSWVAKWLSVDHSIAGMYAIKVDGRLPAEVVELLPHYKPRDGSQVE
modifications: Cy5-trimethoprim (Cy5-TMP) bound non-covalently to the DHFR tag
For the molecule B1, the 1/k-5 (average time to dissociate from elongation complexes) came to 56 s; the frequency of association with a DNA containing Rpb1^SNAP549, with added NTPs was determined as 0.0094 s⁻¹; the kapp = k-5 + k6 (aggregate dissociation rate constant, pooled events) came to 0.021 s⁻¹; the kapp,prior (only events in which Spt4/5 left before RNApII) came to 0.021 s⁻¹. This molecule registered a kapp,simul (only events in which Spt4/5 and RNApII left simultaneously) of 0.018 s⁻¹.
